Laboratory results: the supplement of paper PMC12338614
± gives the uncertainty stated by the source.

B1: library; numbered along this chain (parent)
chain: MEVVDPQQLGMFTEGELMSVGMDTFIHRIDSTEVIYQPRRKRAKLIGKYLMGDLLGEGSYGKVKEVLDSETLCRRAVKILKKKKLRRIPNGEANVKKEIQLLRRLRHKNVIQLVDVLYNEEKQKMYMVMEYCVCGMQEMLDSVPEKRFPVCQAHGYFCQLIDGLEYLHSQGIVHKDIKPGNLLLTTGGTLKISDLGVAEALHPFAADDTCRTSQGSPAFQPPEIANGLDTFSGFKVDIWSAGVTLYNITTGLYPFEGDNIYKLFENIGKGSYAIPGDCGPPLSDLLKGMLEYEPAKRFSIRQIRQHSWFRKKHPPAEAPVPIPPSPDTKDRWRSMTVVPYLEDLHGADEDEDLFDIEDDIIYTQDFTVPGQVPEEEASHNGQRRGLPKAVCMNGTEAAQLSTKSRAEGRAPNPARKACSASSKIRRLSACKQQ

Variants of: B1
Experiment: STK11 functional score (HeLa growth suppression), rescaled enrichment; synonymous median = 1, nonsense median = 0 (normalised score)
Settings: with HeLa; variant type: missense
In short: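 HeLa cells carrying an AAVS1 landing pad received codon-optimised STK11 libraries made by codon randomisation (POPCode), integrated by Bxb1, with three regions each transfected three times. Integrants that were BFP-negative and mCherry-positive were sorted by FACS 4–5 days after electroporation and then grown for about two weeks. Tiled amplicons from gDNA were sequenced on NextSeq at ~2 million reads per tile. The functional score is a wild-type-corrected log ratio of post- to pre-selection counts, rescaled to the synonymous and nonsense medians, merged across codons and replicate transfections, and given a bootstrapped error.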

Variant | STK11 functional score
W239C | 0.0722 ± 0.1
Q170C | 1.51 ± 0.44
Y272I | 1.08 ± 0.3
E14K | 0.385 ± 0.59
P221L | 0.159 ± 0.17
S142T | 1.47 ± 0.18
R28A | 1.52 ± 0.34
G56A | 0.838 ± 0.097
G56S | 0.788 ± 0.12
I424C | 1.35 ± 0.4
V128L | 0.945 ± 0.1
I274L | 1.02 ± 0.16
M51V | 0.725 ± 0.34
L285S | -0.0113 ± 0.096
K329R | 0.535 ± 0.3
K329Q | 1.1 ± 0.39
K329D | 1.56 ± 0.27
E293Q | 1.23 ± 0.55
H379T | 1.31 ± 0.18
G268T | 1.52 ± 0.16
G268V | 0.743 ± 0.19

Variant | STK11 functional score
G268I | 1.65 ± 0.17
R383W | 0.781 ± 0.14
K191V | 1.19 ± 0.29
L195I | 1.44 ± 0.26
C210K | 1.3 ± 0.49
A273H | 0.901 ± 0.3
V320I | 1.59 ± 0.17
Q123V | 0.961 ± 0.2
G242R | -0.0649 ± 0.095
S421V | 1.38 ± 0.18
D141A | 1.01 ± 0.15
S216D | 0.167 ± 0.37
S216G | 0.926 ± 0.23
S216F | -0.0894 ± 0.09
L54H | 1.15 ± 0.19
G135N | 1.7 ± 0.41
T71N | 0.961 ± 0.15
R384M | 1.36 ± 0.16
A347R | 1.54 ± 0.18
V110E | -0.206 ± 0.081
V173S | 1.23 ± 0.4

Variant | STK11 functional score
H174K | 0.153 ± 0.09
H313L | 1.48 ± 0.18
I177M | 0.6 ± 0.17
L182V | 0.907 ± 0.12
L182E | -0.122 ± 0.31
L167N | 0.605 ± 0.12
V20L | 0.787 ± 0.15
D284M | 1.19 ± 0.42
I35F | 0.949 ± 0.091
L140I | 1.15 ± 0.12
L140C | 0.555 ± 0.35
V133N | 1.17 ± 0.15
S401D | 1.19 ± 0.36
H345G | 1.49 ± 0.39
A398T | 1.3 ± 0.21
A43L | 1.58 ± 0.34
T250F | 1.14 ± 0.2
T250A | 1.01 ± 0.11
R211E | 1.53 ± 0.29
E98M | 0.133 ± 0.46
G180M | 0.93 ± 0.82

Variant | STK11 functional score
K269C | 1.09 ± 0.35
I260R | 1.66 ± 0.16
P149D | 0.598 ± 0.17
P149W | 0.608 ± 0.17
R297W | -0.193 ± 0.083
F264Y | 1.06 ± 0.16
E265G | 0.962 ± 0.17
Q159W | 0.972 ± 0.42
N247F | 0.863 ± 0.091
N247E | 1.33 ± 0.12
L160E | 0.305 ± 0.092
G61C | 1.13 ± 0.097
T32W | 1.52 ± 0.2
T32G | 1.45 ± 0.23
G10S | 1.17 ± 0.092
I192M | 1.25 ± 0.61
Q137L | 1.27 ± 0.084
N90L | 1 ± 0.12
I356N | 1.45 ± 0.62
I356T | 1.58 ± 0.43
